Experimental data reported in the DeepSol protein solubility set.

Experiment: soluble on expression in E. coli; label from the status in PepcDB or PDB records

Question: Which “soluble on expression in E. coli” value does the source give for “MVVYGKQKYIMKRCFYMNKKLKTEAVDHLFQAILTLKSTEECYSFFEDVCTVNELLSFSQRYEVAKMLREKRTYLEIADKTGASTATISRVNRSLNYGNDGYDMVFKRLEDQAAEDNEA” here?
Answer: not soluble

Question: For “MVYFEEVRRHIRIDAAHVYGGLLATLTALYEYHQIPYEGIPVGTIKKKMTGKGNASKEEIIKVVCAKGHASCDDNEADALATLHVMKGKEIRHVN”, which “soluble on expression in E. coli” value is on record?
Answer: not soluble

Question: For “MVYWEYKINQTRRVMKNLKFQSVFDIIGPVMVGPSSSHTAGAVRIGKIVSAIFGDAPTEVEFQLFNSFAKTYRGHGTDVALVAGILGMETDDPDIPHALDIAHEKGIKVYWKINKDSKAPHPNTTRITLKNATKTISATGISIGGGNIQVTELNGF”, which “soluble on expression in E. coli” value is on record?
Answer: not soluble

Question: For “MWASPSPSVTVEFLEADSRLGGREVSLCKVAGQPDIRCECGWLELQPTRRSVNYEVVSSGGVTQSAALVTADFQSAEERSRLTVTVQLSSLARDMRDGYHEGFGAGLNNLASVAGRTMVLERVIKVPRNIVWKAWMNEKTLPQWWGPEGFSCRTKRIDLRTGGEWVFDMIGPDGTVFPNHHRYVEIRPEERLAYTLLWGENGPKHADAWASFEDQDGATKVVLGMVFSTDAEFQQAKGFGAVELGQQTLGKLERFAKFFLEHHHHHH”, which “soluble on expression in E. coli” value is on record?
Answer: soluble

Question: With “MWGETFDDFENDEGEMAMAKQNLIAEPARADFTFAKLPLGIQPVDFMKTHFAETAGKSMQFRKGTTTLAFVYEPATPADKGGIIVAVDSRASSGEYISSKSVMKILDIGDRMVATMAGGAADCQFWTRIVAKYCTLYELREKTSITVSAASKYFANTLYGYRGQGLSVGSMVAGYDKKGPQIFKVDSEGDRCQLKVCSVGSGSLNAYGILDNHYKPKMTDDEARKLGLRAIMHATYRDSGSGGVCNLCHITPTEKIRLPPMDVSKLWYEFADELGRDITYNPVE” as the sequence, how does the “soluble on expression in E. coli” value read?
Answer: soluble

Question: Which “soluble on expression in E. coli” value does the source give for “MWIEELANGKFKYIERYTDPLTNKYKKVSVTLDKNSSQAQKKAGLILQEKIEDRLAIRNHSEMTYGELKKEYLKQWIPTVKDSTKRGYLVSDSHIATVLPDDTIINKLTKRDIRLIIDKLLKHNSYHVTHKCRKRLHAIFSYAIQMDYMTSNPTENVLVPKPKDDYKPEKVLYLTSNEVYDLCNRMIDNDEQTLADIVLFMFLTGVRYGELSCLTYDKIDFENKEILINATYDFNTREITTTKTKKSTRKISVSDNILDIVNRQKKTSSFVFPNSNGVPILNAYINKRLKIYGDYHTHLFRHSHISFLAEKGIPLNAIMDRVGHSDPKTTLSIYSHTTVNMKEIINKQTAPFVPLLKSE” here?
Answer: not soluble

Question: With “MWIIEAEGDILKGKSRILFPGTYIVGRNVSDDSSHIQVISKSISKRHARFTILTPSEKDYFTGGPCEFEVKDLDTKFGTKVNEKVVGQNGDSYKEKDLKIQLGKCPFTINAYWRSMCIQFDNPEMLSQWASNLNLLGIPTGLRDSDATTHFVMNRQAGSSITVGTMYAFLKKTVIIDDSYLQYLSTVKESVIEDASLMPDALECFKNIIKNNDQFPSSPEDCINSLEGFSCAMLNTSSESHHLLELLGLRISTFMSLGDIDKELISKTDFVVLNNAVYDSEKISFPEGIFCLTIEQLWKIIIERNSRELISKEIERLKYATASNSTPQKIAAALEHHHHHH” as the sequence, how does the “soluble on expression in E. coli” value read?
Answer: soluble

Question: Which “soluble on expression in E. coli” value does the source give for “MWKAVMNAWNGTESQSKNVSNIQSYSFEDMKRIVGKHDPNVVLVDVREPSEYSIVHIPASINVPYRSHPDAFALDPLEFEKQIGIPKPDSAKELIFYCASGKRGGEAQKVASSHGYSNTSLYPGSMNDWVSHGGDKLDL” here?
Answer: soluble

Question: Which “soluble on expression in E. coli” value does the source give for “MWLFEESAVGFCSNSGVIDNKHAGYTGTGFIDTENAVGASIVWSLSAASAKTYTAQIRFGNGGTSARRATVVVNDSQIKTLDFPTNSNWTQWQTVNVDIPLKAGTNSIKLVAETADGLANIDSIRVTGNGITPAACPLEHHHHHH” here?
Answer: soluble

Question: With “MWNETWNEITNELIQLSREPESEIPRITAEQRAYLKLVRPAAFVEGIAVLRVPHSRAKETIETHLGQAITSVLSRRMGRPFTVAVTVDPTLDVIQDLPHDVPEQHIVQHHVPEHPHYSPVSQGYPPHYAPEQSEYNTEYSDEYPSGWATYHVQTPQPSQSSQSAQQQPAQRMPDRRRYA” as the sequence, how does the “soluble on expression in E. coli” value read?
Answer: not soluble

Question: For “MWRRHYKLVPQIDTRDCGPAVLASVAKHYGSNYSIAYLRELSKTNKQGTTALGIVEAAKKLGFETRSIKADMTLFDYNDLTYPFIVHVIKGKRLQHYYVVYGSQNNQLIIGDPDPSVKVTRMSKERFQSEWTGLAIFLAPQPNYKPHKGEHHHHHH”, which “soluble on expression in E. coli” value is on record?
Answer: soluble
